Results reported in patent US6642368B1, “Programmed cell death and caspase-12” (The General Hospital Corporation, priority 1998, dated 2003).

What was measured:
[1] = tested on: pro-caspase-12; assay: In vitro cleavage of [35S]-labeled protein by partially purified caspase-12Δ2; assay type: biochemical, mouse; conditions: 1 hr at 37° C., 0.1 μg enzyme
Text: (§1) FIGS. 8A-8C Protease activity of caspase-12Δ2. […] Proteins were run on 15% gel and detected by Coomassie brilliant blue staining. Arrowheads indicate polypeptides derived from caspase-12 proteins. FIG. 8B is a diagram of processing sites on caspase-12Δ and caspase-12Δ2. […] Reaction was stopped by boiling with the addition of sample buffer for SDS-polyacrylamide gel electrophoresis. The molecular sizes in kilodaltons are indicated at the left.
(§2) ICE, casp-2 and casp-3 were cloned into a pET-15b vector (Novagen) and their expression was induced in the presence of 0.2-0.3 mM IPTG (Wang, S., et a., J. Biol. Chem. 271:20580-20587 (1996); Cryns, V. L., et al., J. Biol. Chem. 271:31277-31282 (1996)). Bacterial lysates containing the ICE-like proteases were prepared as described (Wang, S., et al., J. Biol. Chem. 271:20580-20587 (1996); Cryns, V. L., et al., J. Biol. Chem. 271:31277-31282 (1996)). [^35S]-labeled proteins were prepared by in vitro transcription and translation using a TNT coupled reticulocyte lysate system (Promega) and [^35S]methionine (Amersham). Labeled proteins were incubated at 37° C. with purified caspase-12Δ2 or at 30° C. with E. coli lysates containing the caspase family members. […] Cleavage products were analyzed by either 10- or 15% SDS-polyacrylamide gel electrophoresis. […]

[2] = tested on: pro-ICE, pro-caspase-2 and pro-caspase-3; assay: In vitro cleavage of [35S]-labeled proteins by partially purified caspase-12Δ2; assay type: biochemical; conditions: 1 hr or 3 hr incubation
Text: as §1, §2

[3] = tested on: pro-IL-1β and poly(ADP-ribose) polymerase; assay: Cleavage of preferred ICE and caspase-3 substrates by purified caspase-12Δ2; assay type: biochemical
Method: as §2, with “members. The reaction mixture contained 25 mM Hepes (pH 7.5) with 5 mM EDTA, 5 mM dithiothreitol, 10% sucrose, 10 μg/ml leupeptin and 250 μM phenylmethylsulfonyl fluoride. Amount of proteins used for cleavage reaction were: 0.1 μg for partially purified caspase-12Δ2, 25-70 μg for E. coli lysate.” for “members.”

B1: caspase-12Δ2: truncated His-tagged caspase-12, amino acid residues 145-419 of SEQ ID NO:2 (protein)
chain: TLKLCPRDQFCKIKTERAKEIYPVMEKEGRTRLALIICNKKFDYLFDRDNADTDILNMQELLENLGYSVVLKENLTAQEMETELMQFAGRPEHQSSDSTFLVFMSHGILEGICGVKHRNKKPDVLHDDTIFKIFNNSNCRSLRNKPKILIMQACRGRYNGTIWVSTNKGIATADTDEERVLSCKWNNSITKAHVETDFIAFKSSTPHNISWKVGKTGSLFISKLIDCFKKYCWCYHLEEIFRKVQHSFEVPGELTQMPTIERVSMTRYFYLFPGN
modifications: His tag
processing of pro-caspase-12 (48 kDa) into fragments [1]: can efficiently process
cleavage of pro-ICE, pro-caspase-2 and pro-caspase-3 [2]: only faint bands of cleavage products
cleavage of pro-IL-1β and poly(ADP-ribose) polymerase [3]: little activity
